B1: NF4 (N protein fragment, residues 285-422) (domain or fragment)
chain: GNFGDQDLIRQGTDYKHWPQIAQFAPSASAFFGMSRIGMEVTPSGTWLTYHGAIKLDDKDPQFKDNVILLNKHIDAYKTFPPTEPKKDKKKKTDEAQPLPQRQKKQPTVTLLPAADMDDFSRQLQNSMSGASADSTQA
B2: NF2 (N protein fragment, residues 211-422) (domain or fragment)
chain: MASGGGETALALLLLDRLNQLESKVSGKGQQQQGQTVTKKSAAEASKKPRQKRTATKQYNVTQAFGRRGPEQTQGNFGDQDLIRQGTDYKHWPQIAQFAPSASAFFGMSRIGMEVTPSGTWLTYHGAIKLDDKDPQFKDNVILLNKHIDAYKTFPPTEPKKDKKKKTDEAQPLPQRQKKQPTVTLLPAADMDDFSRQLQNSMSGASADSTQA

Molecular target: the molecule itself
Assay: AUC

| Protein | stoichiometry N |
| --- | --- |
| B1 | 2 |
| B2 | 2 |

From article PMC8008353 (The Journal of Biological Chemistry, 2005)
